Consider five molecules from paper PMC11189301, “Structure of the human outer kinetochore KMN network complex” (Nature Structural & Molecular Biology, 2024).

B4: Nsl1 (natural protein, Homo sapiens, UniProt Q96IY1 1-281, looked up)
chain: MAGSPELVVLDPPWDKELAAGTESQALVSATPREDFRVRCTSKRAVTEMLQLCGRFVQKLGDALPEEIREPALRDAQWTFESAVQENISINGQAWQEASDNCFMDSDIKVLEDQFDEIIVDIATKRKQYPRKILECVIKTIKAKQEILKQYHPVVHPLDLKYDPDPAPHMENLKCRGETVAKEISEAMKSLPALIEQGEGFSQVLRMQPVIHLQRIHQEVFSSCHRKPDAKPENFITQIETTPTETASRKTSDMVLKRKQTKDCPQRKWYPLRPKKINLDT
notes: Nsl1, subunit of human MIS12C; Subunit within the KMN network cryo-EM sample; source: High-5 insect cells, expressed and purified as part of MIS12C
B5: Dsn1 (natural protein, Homo sapiens, UniProt Q9H410 1-356, looked up)
chain: MTSVTRSEIIDEKGPVMSKTHDHQLESSLSPVEVFAKTSASLEMNQGVSEERIHLGSSPKKGGNCDLSHQERLQSKSLHLSPQEQSASYQDRRQSWRRASMKETNRRKSLHPIHQGITELSRSISVDLAESKRLGCLLLSSFQFSIQKLEPFLRDTKGFSLESFRAKASSLSEELKHFADGLETDGTLQKCFEDSNGKASDFSLEASVAEMKEYITKFSLERQTWDQLLLHYQQEAKEILSRGSTEAKITEVKVEPMTYLGSSQNEVLNTKPDYQKILQNQSKVFDCMELVMDELQGSVKQLQAFMDESTQCFQKVSVQLGKRSMQQLDPSPARKLLKLQLQNPPAIHGSGSGSCQ
notes: Dsn1, subunit of human MIS12C; Subunit within the KMN network cryo-EM sample; residues N-terminal to Arg92 are disordered; source: High-5 insect cells, expressed and purified as part of MIS12C

Assay in all cases: cryo-EM structure; NDC80C, MIS12C and KNL1C mixed 1:1:1 and run on Superose 6 in 20 mM HEPES pH 8.0, 80 mM NaCl, 1 mM MgCl2, 1 mM TCEP; about 1 mg/ml on UltrAuFoil grids; 3.0 Å (MIS12C heads 3.8 Å)
Holding throughout (conditions): both partners purified

The target in the assay “Nsl1” is B4.
For the assay “Dsn1”, the target named is B5.
The next assay deals with T1, Knl1 residues 1870–2342 (human, UniProt Q8NG31 1870-2342).
T1 construct: Knl1, human, 2,342-residue protein, residues 1870-2342; coordinates traced R2097–H2342; Subunit within the KMN network cryo-EM sample; also called extended version of the Knl1 C terminus; source: High-5 insect cells, expressed and purified as part of KNL1C
T1 sequence (looked up): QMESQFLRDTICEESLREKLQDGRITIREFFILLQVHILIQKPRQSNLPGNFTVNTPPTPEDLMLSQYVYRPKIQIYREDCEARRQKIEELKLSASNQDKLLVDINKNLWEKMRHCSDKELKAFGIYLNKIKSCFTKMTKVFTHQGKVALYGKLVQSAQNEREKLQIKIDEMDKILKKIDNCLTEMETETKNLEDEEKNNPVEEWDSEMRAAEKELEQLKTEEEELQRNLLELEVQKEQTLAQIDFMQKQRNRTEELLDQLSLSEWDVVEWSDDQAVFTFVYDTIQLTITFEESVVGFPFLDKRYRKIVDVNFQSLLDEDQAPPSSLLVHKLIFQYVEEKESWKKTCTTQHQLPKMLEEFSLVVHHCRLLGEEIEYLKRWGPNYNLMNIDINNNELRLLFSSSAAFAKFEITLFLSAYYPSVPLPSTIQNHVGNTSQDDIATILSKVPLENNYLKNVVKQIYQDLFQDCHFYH

B1: Mis12 (natural protein, Homo sapiens, UniProt Q9H081 1-205, looked up)
chain: MSVDPMTYEAQFFGFTPQTCMLRIYIAFQDYLFEVMQAVEQVILKKLDGIPDCDISPVQIRKCTEKFLCFMKGHFDNLFSKMEQLFLQLILRIPSNILLPEDKCKETPYSEEDFQHLQKEIEQLQEKYKTELCTKQALLAELEEQKIVQAKLKQTLTFFDELHNVGRDHGTSDFRESLVSLVQNSRKLQNIRDNVEKESKRLKIS
notes: Mis12, subunit of human MIS12C; Subunit within the KMN network cryo-EM sample; source: High-5 insect cells, expressed and purified as part of MIS12C
For the molecule B1, the binding result with Nsl1 and in the assay with Dsn1 was “binds” each time.

B2: ZWINT (natural protein, human, UniProt O95229 1-277, looked up)
chain: MEAAETEAEAAALEVLAEVAGILEPVGLQEEAELPAKILVEFVVDSQKKDKLLCSQLQVADFLQNILAQEDTAKGLDPLASEDTSRQKAIAAKEQWKELKATYREHVEAIKIGLTKALTQMEEAQRKRTQLREAFEQLQAKKQMAMEKRRAVQNQWQLQQEKHLQHLAEVSAEVRERKTGTQQELDRVFQKLGNLKQQAEQERDKLQRYQTFLQLLYTLQGKLLFPEAEAEAENLPDDKPQQPTRPQEQSTGDTMGRDPGVSFKAVGLQPAGDVNLP
notes: ZWINT, human; coordinates traced Q183–G221; Subunit within the KMN network cryo-EM sample; source: High-5 insect cells, expressed and purified as part of KNL1C
As for B2, the binding result with Nsl1 and with Knl1 residues 1870–2342 was “binds” in each case.

B3: Spc25 (natural protein, Homo sapiens, UniProt Q9HBM1 1-224, looked up)
chain: MVEDELALFDKSINEFWNKFKSTDTSCQMAGLRDTYKDSIKAFAEKLSVKLKEEERMVEMFLEYQNQISRQNKLIQEKKDNLLKLIAEVKGKKQELEVLTANIQDLKEEYSRKKETISTANKANAERLKRLQKSADLYKDRLGLEIRKIYGEKLQFIFTNIDPKNPESPFMFSLHLNEARDYEVSDSAPHLEGLAEFQENVRKTNNFSAFLANVRKAFTATVYN
notes: Spc25, subunit of human NDC80C; coordinates traced D80–N224; Subunit within the KMN network cryo-EM sample; source: High-5 insect cells, expressed and purified as part of NDC80C
As for B3, the binding result with Nsl1 and with Dsn1 was “binds” throughout.

For B4, the binding result with Knl1 residues 1870–2342 and in the assay with Dsn1 was “binds” throughout.

In the case of B5, in the assay with Knl1 residues 1870–2342, the binding result is “binds”.
